Target: T1, GST-17NAnk (GST-tagged N-terminal cytosolic domain of zDHHC17, amino acids 11-305) (mouse, UniProt Q80TN5-1 11-305)
T1 sequence (looked up): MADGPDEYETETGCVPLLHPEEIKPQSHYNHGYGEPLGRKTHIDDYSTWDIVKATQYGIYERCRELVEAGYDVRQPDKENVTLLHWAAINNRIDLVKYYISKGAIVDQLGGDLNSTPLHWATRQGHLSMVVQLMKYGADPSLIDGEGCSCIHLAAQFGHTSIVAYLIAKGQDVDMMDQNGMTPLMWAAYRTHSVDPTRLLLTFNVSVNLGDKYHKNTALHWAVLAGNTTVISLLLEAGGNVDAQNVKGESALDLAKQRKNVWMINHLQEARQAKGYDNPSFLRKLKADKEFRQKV
Experiment: pull-down

B1: Myc-tagged CSP, palmitoylated (p) (natural protein, UniProt Q29455 1-198, looked up)
chain: MADQRQRSLSTSGESLYHVLGLDKNATSDDIKKSYRKLALKYHPDKNPDNPEAADKFKEINNAHAILTDATKRNIYDKYGSLGLYVAEQFGEENVNTYFVLSSWWAKALFIFCGLLTCCYCCCCLCCCFNCCCGKCKPKAPEGEETEFYVSPEDLEAQLQSDEREAADTPIVIQPASATETTQLTADSHPSYHTDGFN
modifications: palmitoylated (S-acylated) cysteines, positions not given
fold lower binding than nonpalmitoylated Myc-CSP: 6 fold

From PMC4244197 (Molecular Biology of the Cell, 2014)
